Assay results as given in patent publication US20160279199A1, “PHARMACEUTICAL COMPOSITION FOR TREATING A METABOLIC SYNDROME” (Sanofi, priority 2010, published 2016).

Columns and labels:
mouse 3T3-L1 adipocytes = settings: in the presence and absence of insulin; cited from earlier work
[1] = test system: ob/ob mice, db/db mice, ZDF rats; settings: cited from earlier work
diabetic rhesus monkeys = settings: 6 weeks; cited from earlier work
db/db mice [2] = assay: Fed blood glucose during treatment of db/db mice; format: in vivo, mouse; settings: s.c. once daily (AVE0010 0.05, FGF-21 0.75, combination 0.75+0.05 mg·kg−1·day−1), up to 4 weeks, FIG. 6
Protocol: (§1) Female db/db mice (BKS.Cg-m +/+ Leprdb/J, age of 6 weeks) were treated with vehicle (PBS), 0.05 mg·kg^−1·day^−1 AVE0010, 0.75 mg·kg^−1·day^−1 recombinant human FGF-21 (SEQ ID NO: 2) or a combined dose of FGF-21 (SEQ ID NO: 2) and AVE0010 (SEQ ID NO:9), (0.75+0.05 mg·kg^−1·day^−1) subcutaneously once daily. Mice were fed ad libitum. Before the first treatment, after one week and 4 weeks blood glucose and HbA1c were measured under fed conditions. After 21 days of treatment an oral glucose tolerance test (OGTT) was initiated. Fasted mice were orally challenged with 2 g·kg^−1 glucose solution and blood glucose was measured at indicated time points.

db/db mice [3] = assay: Oral glucose tolerance test (OGTT) in treated db/db mice; format: in vivo, mouse; settings: after 21 days s.c. once daily (AVE0010 0.05, FGF-21 0.75, combination 0.75+0.05 mg·kg−1·day−1), fasted, 2 g·kg−1 oral glucose, vs vehicle treated obese control, FIG. 5
Protocol: as §1

[4] = ob/ob and db/db mice and obese ZDF rats

Row | Molecule | glucose uptake (mouse 3T3-L1 adipocytes) | mitogenicity, hypoglycemia, or weight gain ([1]; any dose tested, diabetic or healthy animals) | food intake or body weight/composition ([1]; diabetic or lean mice and rats, 2 weeks of administration) | fed and fasting blood glucose, triglycerides, and glucagon levels ([1]; ob/ob and db/db mice and 8 week old ZDF rats, dose dependent) | blood glucose and triglycerides [1, 4] | fasting insulin levels [1, 4] | glucose clearance during an oral glucose tolerance test [1, 4] | HDL-cholesterol (diabetic rhesus monkeys) | LDL-cholesterol (diabetic rhesus monkeys) | body weight (diabetic rhesus monkeys) | fasting plasma glucose, fructosamine, triglyceride, insulin and glucagone levels (diabetic rhesus monkeys) | hypoglycemia (diabetic rhesus monkeys) | blood glucose (db/db mice [2]) | glucose tolerance (OGTT) (db/db mice [3])
1 | FGF21: Fibroblast growth factor 21, metabolic regulator produced primarily by the liver, as studied in the cited literature (protein, UniProt Q9NSA1 29-209, looked up) Fibroblast growth factor 21: HPIPDSSPLLQFGGQVRQRYLYTDDAQQTEAHLEIREDGTVGGAADQSPESLLQLKALKPGVIQILGVKTSRFLCQRPDGALYGSLHFDPEACSFRELLLEDGYNVYQSEAHGLPLHLPGNKSPHRDPAPRGPARFLPLPGLPPALPEPPGILAPQPPDVGSSDPLSMVGPSQGRSPSYAS | stimulate glucose uptake | did not induce | did not affect | decrease | significantly lowered | decreased | improved | increased | significantly lowered | slightly but significantly decreased | reduced | not observed | – | –
2 | FGF-21 (SEQ ID NO: 2): mutated FGF-21 carrying a deletion of amino acids 1-28 of human FGF-21 and an additional glycine at the N-terminus (protein, G linked to fragment of human FGF21 from H29 to S209, mutated FGF-21 carrying a deletion of amino acids 1-28 of human FGF-21 and an additional glycine at the N-terminus) GHPIPDSSPLLQFGGQVRQRYLYTDDAQQTEAHLEIREDGTVGGAADQSPESLLQLKALKPGVIQILGVKTSRFLCQRPDGALYGSLHFDPEACSFRELLLEDGYNVYQSEAHGLPLHLPGNKSPHRDPAPRGPARFLPLPGLPPAPPEPPGILAPQPPDVGSSDPLSMVGPSQGRSPSYAS | – | – | – | – | – | – | – | – | – | – | – | – | inhibition of blood glucose increase | small improvement in glucose tolerance
